Experimental data taken from patent US20240182536A1 (MURAL ONCOLOGY, published 2024).
Residue numbers refer to the chain shown, from its start. Names may count otherwise.

What was measured:
[1] = target: T1, mouse IL-18 binding protein (mouse, UniProt Q9Z0M9 29-193); test: Octet BLI, monoFc scaffold
T1 construct: also called Mouse IL18BP; Mouse IL-18BP
T1 sequence (looked up): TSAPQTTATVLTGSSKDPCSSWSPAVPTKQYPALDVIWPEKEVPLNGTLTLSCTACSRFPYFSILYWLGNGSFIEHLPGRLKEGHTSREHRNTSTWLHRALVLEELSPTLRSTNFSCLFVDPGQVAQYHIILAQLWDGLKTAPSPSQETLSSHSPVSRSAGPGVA
Experimental: (§1) Octet 96red instrument was used to determine affinities of IL18 proteins to BP or receptors. 5-10 ug/ml analyte proteins were used for loading on Sartorius tips (AHC or SA). […] 120-180 s loading, 200 s association and 800 s dissociation were used for kinetics. 3-7 data points were used to calculate affinities.
(§2) Several mouse variants were next tested for binding affinity to mouse IL-18R alpha and mouse IL-18BP.

[2] = target: T2, mouse IL-18 receptor alpha (mouse, UniProt Q61098 20-326, limits assumed); test: Octet BLI, monoFc scaffold
T2 construct: also called Mouse IL18Ra; mouse IL-18R alpha
T2 sequence (looked up): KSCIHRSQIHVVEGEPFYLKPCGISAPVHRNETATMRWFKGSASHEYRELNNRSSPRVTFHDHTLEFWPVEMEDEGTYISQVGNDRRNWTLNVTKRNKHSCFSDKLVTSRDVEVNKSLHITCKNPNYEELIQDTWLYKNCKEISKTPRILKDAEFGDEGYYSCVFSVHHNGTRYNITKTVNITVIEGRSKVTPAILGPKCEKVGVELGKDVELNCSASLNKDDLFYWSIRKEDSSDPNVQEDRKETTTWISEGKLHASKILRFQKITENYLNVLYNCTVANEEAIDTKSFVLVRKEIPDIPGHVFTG
Experimental: as §1, §2

[3] = target: T1, mouse IL-18 binding protein; test: cell-based or functional assay
[4] = target: T3, mouse IL-18 receptors on PathHunter U2OS mIL18-NF-kb reporter cells (mouse, UniProt Q61098 20-537; Q9Z2B1 20-614); test: cell-based or functional assay
T3 sequence (looked up) 1: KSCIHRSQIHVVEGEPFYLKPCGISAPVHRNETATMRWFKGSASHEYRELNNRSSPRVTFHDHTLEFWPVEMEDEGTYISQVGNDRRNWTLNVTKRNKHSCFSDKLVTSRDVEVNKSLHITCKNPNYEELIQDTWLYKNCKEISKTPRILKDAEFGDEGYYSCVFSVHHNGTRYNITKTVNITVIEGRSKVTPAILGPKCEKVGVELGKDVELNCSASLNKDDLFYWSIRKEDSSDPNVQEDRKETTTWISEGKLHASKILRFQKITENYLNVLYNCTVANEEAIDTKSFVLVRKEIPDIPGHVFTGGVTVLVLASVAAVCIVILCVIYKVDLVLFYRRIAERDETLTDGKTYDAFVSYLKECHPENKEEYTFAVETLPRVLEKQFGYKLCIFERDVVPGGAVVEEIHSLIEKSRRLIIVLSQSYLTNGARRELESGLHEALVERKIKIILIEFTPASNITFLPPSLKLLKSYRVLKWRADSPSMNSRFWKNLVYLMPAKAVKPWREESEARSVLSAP
T3 sequence (looked up) 2: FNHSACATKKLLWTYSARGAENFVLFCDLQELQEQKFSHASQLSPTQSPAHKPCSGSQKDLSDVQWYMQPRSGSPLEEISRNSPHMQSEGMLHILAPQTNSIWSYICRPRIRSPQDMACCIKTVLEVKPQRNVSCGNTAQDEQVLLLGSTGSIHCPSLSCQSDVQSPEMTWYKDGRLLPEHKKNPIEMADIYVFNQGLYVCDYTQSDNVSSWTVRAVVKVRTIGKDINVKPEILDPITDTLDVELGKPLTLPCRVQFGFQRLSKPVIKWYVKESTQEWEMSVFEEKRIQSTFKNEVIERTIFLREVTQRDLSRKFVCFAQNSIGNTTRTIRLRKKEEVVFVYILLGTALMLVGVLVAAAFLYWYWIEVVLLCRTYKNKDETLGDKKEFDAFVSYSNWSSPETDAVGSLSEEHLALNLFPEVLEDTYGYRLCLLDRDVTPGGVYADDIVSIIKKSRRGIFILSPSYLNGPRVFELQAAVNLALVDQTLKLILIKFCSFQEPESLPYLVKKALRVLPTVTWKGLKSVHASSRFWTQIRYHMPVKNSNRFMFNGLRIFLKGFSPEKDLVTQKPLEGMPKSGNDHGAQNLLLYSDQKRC

[5] = target: T4, IL-18 receptors on HEK-Blue IL-18 reporter cells (InvivoGen) (UniProt Q13478 19-541; O95256 20-599); test: cell-based or functional assay
T4 sequence (looked up) 1: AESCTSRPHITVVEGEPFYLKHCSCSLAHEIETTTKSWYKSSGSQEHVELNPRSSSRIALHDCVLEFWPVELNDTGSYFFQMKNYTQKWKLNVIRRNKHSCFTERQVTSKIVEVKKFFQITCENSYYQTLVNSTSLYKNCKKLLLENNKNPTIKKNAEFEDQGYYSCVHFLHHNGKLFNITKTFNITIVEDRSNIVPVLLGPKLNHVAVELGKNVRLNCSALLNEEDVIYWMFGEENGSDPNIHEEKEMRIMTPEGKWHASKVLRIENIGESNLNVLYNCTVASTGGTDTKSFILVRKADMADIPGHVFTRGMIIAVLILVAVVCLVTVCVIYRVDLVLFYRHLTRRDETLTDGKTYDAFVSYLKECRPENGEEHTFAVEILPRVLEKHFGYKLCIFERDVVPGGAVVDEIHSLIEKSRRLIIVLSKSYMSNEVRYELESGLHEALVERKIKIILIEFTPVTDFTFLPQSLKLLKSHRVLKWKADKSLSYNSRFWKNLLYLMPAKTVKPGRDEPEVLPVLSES
T4 sequence (looked up) 2: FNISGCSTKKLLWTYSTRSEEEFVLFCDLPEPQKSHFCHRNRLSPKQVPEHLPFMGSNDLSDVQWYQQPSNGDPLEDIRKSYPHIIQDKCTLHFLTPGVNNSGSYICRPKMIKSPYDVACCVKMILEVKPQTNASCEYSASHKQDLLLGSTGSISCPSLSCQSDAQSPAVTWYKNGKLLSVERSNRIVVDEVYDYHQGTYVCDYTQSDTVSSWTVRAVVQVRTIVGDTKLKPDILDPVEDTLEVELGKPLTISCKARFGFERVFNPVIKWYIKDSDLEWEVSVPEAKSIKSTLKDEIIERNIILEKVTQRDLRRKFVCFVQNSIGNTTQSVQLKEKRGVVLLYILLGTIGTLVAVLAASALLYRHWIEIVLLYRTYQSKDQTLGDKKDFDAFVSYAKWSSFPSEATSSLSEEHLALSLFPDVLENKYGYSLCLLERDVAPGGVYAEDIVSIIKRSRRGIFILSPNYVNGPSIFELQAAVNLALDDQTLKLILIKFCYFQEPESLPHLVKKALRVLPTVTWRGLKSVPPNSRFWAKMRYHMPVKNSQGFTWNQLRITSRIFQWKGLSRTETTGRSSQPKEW

[6] = target: T5, human IL-18 binding protein (IL-18BP) (human, UniProt O95998 31-194); test: cell-based or functional assay
T5 sequence (looked up): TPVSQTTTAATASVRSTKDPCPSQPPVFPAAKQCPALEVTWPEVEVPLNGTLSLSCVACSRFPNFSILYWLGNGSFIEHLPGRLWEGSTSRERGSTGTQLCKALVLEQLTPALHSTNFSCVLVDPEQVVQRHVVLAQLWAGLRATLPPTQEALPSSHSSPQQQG

[7] = target: T5, human IL-18 binding protein (IL-18BP); test: cell-based or functional assay; remark: listed apart in the source
[8] = target: T6, IL-18 receptor (IL-18Rα and IL-18Rβ) (UniProt Q13478 19-541; O95256 20-599, limits assumed); test: cell-based or functional assay
T6 sequence (looked up) 1: T4 sequence (looked up) 1
T6 sequence (looked up) 2: T4 sequence (looked up) 2

[9] = target: T5, human IL-18 binding protein (IL-18BP); test: Octet BLI
Experimental: as §1

[10] = target: T7, human IL-18R alpha/beta pair (IL-18Rab) (human, UniProt Q13478 19-329; O95256 20-356); test: Octet BLI
T7 construct: also called hu IL-18Rab
T7 sequence (looked up) 1: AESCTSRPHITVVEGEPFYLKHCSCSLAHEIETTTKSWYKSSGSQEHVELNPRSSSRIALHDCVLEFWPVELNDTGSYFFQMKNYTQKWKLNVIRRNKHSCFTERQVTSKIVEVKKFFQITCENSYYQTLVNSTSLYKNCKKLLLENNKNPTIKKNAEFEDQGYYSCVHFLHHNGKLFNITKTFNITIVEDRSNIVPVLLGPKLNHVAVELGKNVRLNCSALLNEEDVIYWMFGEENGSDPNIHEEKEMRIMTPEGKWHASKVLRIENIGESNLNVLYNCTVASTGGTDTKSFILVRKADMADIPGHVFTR
T7 sequence (looked up) 2: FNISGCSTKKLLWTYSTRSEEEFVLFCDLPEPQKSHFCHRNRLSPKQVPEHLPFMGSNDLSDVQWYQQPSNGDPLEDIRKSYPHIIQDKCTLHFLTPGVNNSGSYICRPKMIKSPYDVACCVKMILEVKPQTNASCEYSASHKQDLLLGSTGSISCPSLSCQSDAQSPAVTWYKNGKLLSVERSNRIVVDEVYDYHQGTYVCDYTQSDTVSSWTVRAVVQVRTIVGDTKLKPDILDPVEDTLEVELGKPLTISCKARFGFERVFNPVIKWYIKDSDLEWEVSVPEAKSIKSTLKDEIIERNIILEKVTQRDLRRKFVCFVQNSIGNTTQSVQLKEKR
Experimental: as §1

[11] = target: T8, human IL-18 receptor alpha (IL-18Rα) (human, UniProt Q13478 19-329, limits assumed); test: Octet BLI
T8 construct: also called hu IL-18Ra; IL-18R alpha
T8 sequence (looked up): T7 sequence (looked up) 1
Experimental: as §1

[12] = target: T4, IL-18 receptors on HEK-Blue IL-18 …; test: cell-based or functional assay; remark: listed apart in the source
[13] = target: T5, human IL-18 binding protein (IL-18BP); test: cell-based or functional assay; remark: listed apart in the source

B1: mouse IL-18 G3T, H6K, K52A on monoFc scaffold (Fc fusion, not shown: small tags and cut ends)
chain: NFTRLKSTTAVIRNINDQVLFVDKRQPVFEDMTDIDQSASEPQTRLIIYMYADSEVRGLAVTLSVKDSKMSTLSSKNKIISFEEMDPPENIDDIQSDLIFFQKRVPGHNKMEFESSLYEGHFLACQKEDDAFKLILKKKDENGDKSVMFTLTNLHQSNGGPSVFLFPPKPKDTLMISRTPEVTCVVVDVSHEDPEVKFNWYVDGVEVHNAKTKPREEQYNSTYRVVSVLTVLHQDWLNGKEYKCKVSNKALPAPIEKTISKAKGQPREPQVYTLPPSREEMTKNQVNLTCLVKGFYPSDIAVEWESNGQPENNYKTTPPVLDSDGSFFLNSTLTVDKSRWQQGNVFSCSVMHEALHNHYTQKSLSLS
- Kd [1]: 78 nM
- Kd [2]: 42.7 nM
- mouse IL-18 reporter assay EC50, +Mouse IL-18BP 50 nM [3]: 0.00169 nM
- mouse IL-18 reporter assay EC50, without mouse IL-18BP [4]: 0.00176 nM

B2: mouse IL-18 G3V, K52A on monoFc scaffold (Fc fusion, not shown: small tags and cut ends)
chain: B1 chain with T3V, K6H
- Kd [1]: 2 nM
- Kd [2]: 8.85 nM
- mouse IL-18 reporter assay EC50, +Mouse IL-18BP 50 nM [3]: 0.0364 nM
- mouse IL-18 reporter assay EC50, without mouse IL-18BP [4]: 0.0007 nM

B3: mouse IL-18 G3V, H6K, K52A on monoFc scaffold (Fc fusion, not shown: small tags and cut ends)
chain: B1 chain with T3V
- Kd [1]: 14 nM
- Kd [2]: 4.85 nM
- mouse IL-18 reporter assay EC50, +Mouse IL-18BP 50 nM [3]: 0.00486 nM
- mouse IL-18 reporter assay EC50, without mouse IL-18BP [4]: 0.0009 nM

B4: mouse IL-18 G3T, K52A on monoFc scaffold (Fc fusion, not shown: small tags and cut ends)
chain: B1 chain with K6H
- Kd [1]: 11 nM
- Kd [2]: 97 nM
- mouse IL-18 reporter assay EC50, +Mouse IL-18BP 50 nM [3]: 0.0208 nM
- mouse IL-18 reporter assay EC50, without mouse IL-18BP [4]: 0.00124 nM

B5: IL-18 variant G3T, M60K (ligand)
chain: YFTKLESKLSVIRNLNDQVLFIDQGNRPLFEDMTDSDMRDNAPRTIFIISMYKDSQPRGKAVTISVKSEKISTLSSENKIISFKEMNPPDNIKDTKSDIIFFQRSVPGHDNKMQFESSSYEGYFLASEKERDLFKLILKKEDELGDRSIMFTVQNED
- HEK-Blue EC50 pM, NO BP (50 nM BP run) [5]: 0.71 pM
- HEK-Blue EC50 pM, NO BP (300 nM BP run) [5]: 0.76 pM
- Fold Change (BP/NO BP), 50 nM BP [6]: 0.99 fold
- Fold Change (BP/NO BP), 300 nM BP [6]: 3.14 fold
- HEK-Blue EC50 pM, +50 nM BP [6]: 0.7 pM
- HEK-blue EC50 (pM) + 300 nM BP [6]: 2.4 pM
- EC50 pM, IFN gamma expression in PBMCs, + 300 nM BP [7]: 117 pM
- EC50 pM, IFN gamma expression in PBMCs, no BP [8]: 214 pM
- Kd [9]: 779 nM
- Kd [10]: 0.02 nM
- Kd [11]: 555 nM
- HEK-Blue Activity Assay Ec50 (pM), -hu IL-18BP [12]: 0.76 pM
- HEK-Blue Activity Assay Ec50 (pM), +300 nM hu IL-18BP [13]: 2.4 pM

B6: Comparator 5 (ligand)
chain: HFGRLHCTTAVIRNINDQVLFVDKRQPVFEDMTDIDQSASEPQTRLIIYAYGDSRARGKAVTLSVKDSKMSTLSCKNKIISFEEMDPPENIDDIQSDLIFFQKRVPGHNKMEFESSLYEGHFLACQKEDDAFKLILKKKDENGDKSVMFTLTNLHQS
- mouse IL-18 reporter assay EC50, +Mouse IL-18BP 50 nM [3]: 0.00091 nM
- mouse IL-18 reporter assay EC50, without mouse IL-18BP [4]: 0.00149 nM
